According to PMC9720954, “Blood–brain barrier penetrating neprilysin degrades monomeric amyloid-beta in a mouse model of Alzheimer’s disease” (Alzheimer's Research & Therapy, 2022):

Experiments:
Aβ1-42 aggregates = target: T1, Aβ1-42 aggregates (Homo sapiens (synthetic peptide; …, UniProt P05067); assay: ELISA; sandwich ELISA; 1 nM Aβ1-40 monomers or 1 nM Aβ1-42 aggregates held by coated rabbit polyclonal antibodies (C-terminal of Aβ, or Aβ1-42); serial dilutions of the recombinant proteins in 0.1% BSA, 0.05% Tween-20 in PBS, 2 h at RT; goat anti-mouse HRP; settings: both partners purified
T1 construct: amyloid-beta 1-42, cut product of the amyloid precursor protein (APP); numbers count on: the Aβ peptide; Soluble aggregates; also called Aβ42; Aβ1-42 soluble aggregates; source: aggregates prepared as previously described [50]

Aβ1-40 monomers = target: T2, Aβ1-40 monomers (Homo sapiens (synthetic peptide; …, UniProt P05067); assay: as above; settings: both partners purified
T2 construct: amyloid-beta 1-40, cut product of the amyloid precursor protein (APP); numbers count on: the Aβ peptide; Used as monomers, held on the plate by a rabbit polyclonal antibody against the C-terminus of Aβ; also called Aβ40; wt-Aβ1-40; source: bought: Innovagen
T2 sequence (P05067 672-711): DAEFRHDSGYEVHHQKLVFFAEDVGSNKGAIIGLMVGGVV

T1 sequence (P05067 672-713): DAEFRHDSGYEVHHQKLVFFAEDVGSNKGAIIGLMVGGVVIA

binding result (Aβ1-42 aggregates): no binding | binding result (Aβ1-40 monomers): no binding
B1: scFc-scFv8D3 (scFv, V domains shown)
VH: EVQLVESGGGLVQPGNSLTLSCVASGFTFSNYGMHWIRQAPKKGLEWIAMIYYDSSKMNYADTVKGRFTISRDNSKNTLYLEMNSLRSEDTAMYYCAVPTSHYVVDVWGQGVSVTVSS
VL: DIQMTQSPASLSASLEEIVTITCQASQDIGNWLAWYQQKPGKSPQLLIYGATSLADGVPSRFSGSRSGTQFSLKISRVQVEDIGIYYCLQAYNTPWTFGGGTKLELK
notes: first variable domain of scFv8D3, as in m1; (G4S)3 linker between the two parts of scFv8D3, written out from the printed formula; second variable domain of scFv8D3, as in m1; in-house linker between scFv8D3 and scFc; Lacks NEP; the control of the study; the signal peptide is cleaved on expression; Mw 81 kDa; also called scFv8D3-scFc; source: Expi293 cells, transfected (pcDNA3.4), purified …
